We go through 24 molecules from patent publication US20170305997A1 (Janssen / Centocor, published 2017).

In assay [1] the target is Recombinant human c-Met Fc chimera (human) (UniProt P08581). Kind of assay: SPR, serine scan in the ECB15 context. In general terms: Surface plasmon resonance follows binding to a sensor surface in real time, without labels.
Assay [2] has as its target T1, human c-Met on cells (human, UniProt P08581 25-1390). Put plainly: cell-based or functional assay.
Assay [3] addresses T1, human c-Met on cells. Kind of assay: binding to NCI-H441 cells, anti-His fluorescence. On the procedure: Purified FN3 domains (50 μL/well; 0 to 1000 nM) were added to the cells for 1 hour at 4° C. in duplicate plates. […] Cells were incubated with biotinylated-anti HIS antibody (diluted 1:160 in FACS stain buffer, 50 μL/well, R&D Systems, cat # BAM050) for 30 minutes at 4° C. […] Cells were washed three times with FACS stain buffer (150 μL/well) and left in FACS stain buffer (50 μL/well).

B1: ECB15 (designed binder, not shown: small tags and cut ends)
chain: MLPAPKNLVVSEVTEDSARLSWDDPWAFYESFLIQYQESEKVGEAIVLTVPGSERSYDLTGLKPGTEYTVSIYGVHNVYKDTNMRGLPLSAIFTTAPAPAPAPAPLPAPKNLVVSRVTEDSARLSWTAPDAAFDSFWIRYFEFLGSGEAIVLTVPGSERSYDLTGLKPGTEYVVNIMGVKGGKISPPLSAIFTT
What is called Kd is a measure of binding affinity in units of concentration. As a reminder, the koff is a measure of how fast the partners let go of each other. By kon is commonly meant the rate constant with which the complex forms. Regarding B1, in assay [1], the Fold Change of KD against the parent is 1 fold, the Kd turned out to be 0.0004 µM, the dissociation rate constant (koff) amounted to 0.000133 s⁻¹ and the association rate constant (kon) amounted to 351000 M⁻¹ s⁻¹.

B2: P114AR7P95-D3 (designed binder)
chain: LPAPKNLVVSRVTEDSARLSWTAPDAAFDSFWIRYFEFLGSGEAIVLTVPGSERSYDLTGLKPGTEYVVNIMGVKGGSISYPLSAIFTTHHHHHH
On to B2, for which, in the assay with human c-Met on cells [2], the “Inhibition of Proliferation of U87-MG cells (IC50)” value (from here on “Inhibition … of U87-MG cells (IC50)”) turned out to be 0.0017 µM and the “pMet inhibition in H441 cells (IC50)” value was determined as 4.6 nM.

B3: P114AR5P75-E9 (designed binder)
chain: LPAPKNLVVSRVTEDSARLSWTAPDAAFDSFFIRYDEFLRSGEAIVLTVPGSERSYDLTGLKPGTEYWVTILGVKGGLVSTPLSAIFTTHHHHHH
As to B3, in the assay with human c-Met on cells [2], the “Inhibition … of U87-MG cells (IC50)” value turned out to be 1.19 µM and the “pMet inhibition in H441 cells (IC50)” value is 1.42 µM.

B4: P114AR7P95-B9 (designed binder)
chain: LPAPKNLVVSRVTEDSARLSWTAPDAAFDSFWIRYFEFLGSGEAIVLTVPGSERSYDLTGLKPGTEYVVQILGVKGGSISVPLSAIFTTHHHHHH
Consider B4, for which, in the assay with human c-Met on cells [2], the “Inhibition … of U87-MG cells (IC50)” value came out at 0.0174 µM and the “pMet inhibition in H441 cells (IC50)” value was found to be 9.8 nM.

B5: P114AR7P92-G8 (designed binder)
chain: LPAPKNLVVSRVTEDSARLSWTAPDAAFDSFVIRYFEFLGSGEAIVLTVPGSERSYDLTGLKPGTEYVVQILGVKGGYISIPLSAIFTTHHHHHH
In general, EC50 refers to the concentration that produces a half-maximal response. A low value points to a more potent agent. With B5, a half-maximal response in the assay with human c-Met on cells [3] (EC50) required 0.0059 µM. In addition, in the assay with human c-Met on cells [2], the “Inhibition … of U87-MG cells (IC50)” value stood at 0.124 µM and the “pMet inhibition in H441 cells (IC50)” value was 155 nM.

B6: P114AR7P92-H5 (designed binder)
chain: LPAPKNLVVSRVTEDSARLSWTAPDAAFDSFWIRYLEFLLGGEAIVLTVPGSERSYDLTGLKPGTEYVVQIMGVKGGTVSPPLSAIFTTHHHHHH
For B6, the EC50 in the assay with human c-Met on cells [3] came to 0.022 µM. Moreover, in the assay with human c-Met on cells [2], the “Inhibition … of U87-MG cells (IC50)” value was determined as 0.672 µM and the “pMet inhibition in H441 cells (IC50)” value came out at 766 nM.

B7: P114AR7P93-G8 (designed binder)
chain: LPAPKNLVVSRVTEDSARLSWTAPDAAFDSFWIRYFEFLGSGEAIVLTVPGSERSYDLTDLKPGTEYGVTINGVKGGRVSTPLSAIFTTHHHHHH
B7 returned an EC50 with human c-Met on cells [3] of 0.0038 µM. Besides, in the assay with human c-Met on cells [2], the “Inhibition … of U87-MG cells (IC50)” value came to 0.104 µM and the “pMet inhibition in H441 cells (IC50)” value was 460 nM.

B8: P114AR7P92-F6 (designed binder)
chain: LPAPKNLVVSRVTEDSARLSWTAPDAAFDSFWIRYFEFLGSGEAIVLTVPGSERSYDLTGLKPGTEYVVNILGVKGGGLSVPLSAIFTTHHHHHH
B8 came in with a concentration giving a half-maximal response (EC50) with human c-Met on cells [3] of 0.0049 µM. Besides, in the assay with human c-Met on cells [2], the “Inhibition … of U87-MG cells (IC50)” value is 0.351 µM and the “pMet inhibition in H441 cells (IC50)” value is 165 nM.

B9: P114AR7P95-H8 (designed binder)
chain: LPAPKNLVVSRVTEDSARLSWTAPDAAFDSFWIRYFEFVSKGEAIVLTVPGSERSYDLTGLKPGTEYVVNIMGVKGGSISPPLSAIFTTHHHHHH
Molecule B9 returned a concentration for a half-maximal effect (EC50) in the assay with human c-Met on cells [3] of 0.0041 µM. Moreover, in the assay with human c-Met on cells [2], the “Inhibition … of U87-MG cells (IC50)” value came out at 0.281 µM and the “pMet inhibition in H441 cells (IC50)” value was 210 nM.

B10: P114AR7P92-F3 (designed binder)
chain: LPAPKNLVVSRVTEDSARLSWTAPDAAFDSFWIRYFEFLGSGEAIVLTVPGSERSYDLTGLKPGTEYIVNIMGVKGGSISHPLSAIFTTHHHHHH
Regarding B10, in the assay with human c-Met on cells [2], the “Inhibition … of U87-MG cells (IC50)” value was found to be 0.0027 µM and the “pMet inhibition in H441 cells (IC50)” value came out at 8.3 nM.

B11: P114AR7P94-A3 (designed binder)
chain: LPAPKNLVVSRVTEDSARLSWTAPDAAFDSFWIRYFEFLGSGEAIVLTVPGSERSYDLTGLKPGTEYVVNIMGVKGGKISPPLSAIFTTHHHHHH
notes: also called P114AR7P95-A3; P114ARP94-A3
As to B11, the EC50 with human c-Met on cells [3] stood at 0.0014 µM. For the same molecule, in the assay with human c-Met on cells [2], the “Inhibition … of U87-MG cells (IC50)” value was found to be 0.0093 µM and the “pMet inhibition in H441 cells (IC50)” value is 5 nM.

B12: P114AR7P93-H9 (designed binder)
chain: LPAPKNLVVSRVTEDSARLSWTAPDAAFDSFWIRYFEFLGSGEAIVLTVPGSERSYDLTGLKPGTEYVVQIIGVKGGHISLPLSAIFTTHHHHHH
The molecule B12 displayed an EC50 with human c-Met on cells [3] of 0.0129 µM. In the assay with human c-Met on cells [2], the “Inhibition … of U87-MG cells (IC50)” value worked out at 0.27 µM and the “pMet inhibition in H441 cells (IC50)” value came out at 288 nM.

B13: P114AR7P95-E3 (designed binder)
chain: LPAPKNLVVSRVTEDSARLSWTAPDAAFDSFWIRYFEFLGSGEAIVLTVPGSERSYDLTGLKPGTEYVVQIMGVKGGTVSPPLSAIFTTHHHHHH
B13 showed a concentration giving a half-maximal response (EC50) with human c-Met on cells [3] of 0.0032 µM. In the assay with human c-Met on cells [2], the “Inhibition … of U87-MG cells (IC50)” value is 0.209 µM and the “pMet inhibition in H441 cells (IC50)” value was 205 nM.

B14: P114AR7P94-E5 (designed binder)
chain: LPAPKNLVVSRVTEDSARLSWTAPDAAFDSFWIRYFEFLGSGEAIVLTVPGSERSYDLTGLKPGTEYAVNIMGVKGGRVSVPLSAIFTTHHHHHH
Turning to B14, a half-maximal effect in the assay with human c-Met on cells [3] (EC50) was put at 0.0034 µM. Moreover, in the assay with human c-Met on cells [2], the “Inhibition … of U87-MG cells (IC50)” value turned out to be 0.196 µM and the “pMet inhibition in H441 cells (IC50)” value was 124 nM.

B15: P114AR7P95-D4 (designed binder)
chain: LPAPKNLVVSRVTEDSARLSWTAPDAAFDSFWIRYFEFLGSGEAIVLTVPGSERSYDLTGLKPGTEYVVQILGVKGGYISIPLSAIFTTHHHHHH
B15 displayed an EC50 with human c-Met on cells [3] of 0.0014 µM. Also, in the assay with human c-Met on cells [2], the “Inhibition … of U87-MG cells (IC50)” value was determined as 0.0194 µM and the “pMet inhibition in H441 cells (IC50)” value came out at 19.5 nM.

B16: P114AR7P93-D11 (designed binder)
chain: LPAPKNLVVSRVTEDSARLSWTAPDAAFDSFWIRYFEFLGSGEAIVLTVPGSERSYDLTGLKPGTEYVVGINGVKGGYISYPLSAIFTTHHHHHH
Molecule B16 displayed an EC50 in the assay with human c-Met on cells [3] of 0.0023 µM. In the assay with human c-Met on cells [2], the “Inhibition … of U87-MG cells (IC50)” value came to 0.0144 µM and the “pMet inhibition in H441 cells (IC50)” value was 16 nM.

B17: P114AR7P95-G7 (designed binder)
chain: LPAPKNLVVSRVTEDSARLSWTAPDAAFDSFWIRYFELLSTGEAIVLTVPGSERSYDLTGLKPGTEYVVNIMGVKGGSISPPLSAIFTTHHHHHH
Take B17: the EC50 with human c-Met on cells [3] was determined as 0.0113 µM. For the same molecule, in the assay with human c-Met on cells [2], the “Inhibition … of U87-MG cells (IC50)” value came out at 0.692 µM and the “pMet inhibition in H441 cells (IC50)” value came to 659 nM.

B18: P114AR7P95-F10 (designed binder)
chain: LPAPKNLVVSRVTEDSARLSWTAPDAAFDSFWIRYFEFTTAGEAIVLTVPGSERSYDLTGLKPGTEYVVNIMGVKGGSISPPLSAIFTTHHHHHH
B18 had an EC50 with human c-Met on cells [3] of 0.0044 µM. In the assay with human c-Met on cells [2], the “Inhibition … of U87-MG cells (IC50)” value was found to be 0.13 µM and the “pMet inhibition in H441 cells (IC50)” value amounted to 188 nM.

B19: A3 K78S (designed binder)
chain: LPAPKNLVVSEVTEDSARLSWDDPWAFYESFLIQYQESEKVGEAIVLTVPGSERSYDLTGLKPGTEYTVSIYGVHNVYKDTNMRGLPLSAIFTTAPAPAPAPAPLPAPKNLVVSRVTEDSARLSWTAPDAAFDSFWIRYFEFLGSGEAIVLTVPGSERSYDLTGLKPGTEYVVNIMGVKGGSISPPLSAIFTT
As for B19, in assay [1], the Fold Change of KD against the parent was found to be 0.75 fold.

B20: A3 P81S (designed binder)
chain: LPAPKNLVVSEVTEDSARLSWDDPWAFYESFLIQYQESEKVGEAIVLTVPGSERSYDLTGLKPGTEYTVSIYGVHNVYKDTNMRGLPLSAIFTTAPAPAPAPAPLPAPKNLVVSRVTEDSARLSWTAPDAAFDSFWIRYFEFLGSGEAIVLTVPGSERSYDLTGLKPGTEYVVNIMGVKGGKISSPLSAIFTT
In the case of B20, the Fold Change of KD against the parent in assay [1] came to 4.25 fold.

B21: A3 G40S (designed binder)
chain: LPAPKNLVVSEVTEDSARLSWDDPWAFYESFLIQYQESEKVGEAIVLTVPGSERSYDLTGLKPGTEYTVSIYGVHNVYKDTNMRGLPLSAIFTTAPAPAPAPAPLPAPKNLVVSRVTEDSARLSWTAPDAAFDSFWIRYFEFLSSGEAIVLTVPGSERSYDLTGLKPGTEYVVNIMGVKGGKISPPLSAIFTT
With B21, the Fold Change of KD against the parent in assay [1] was 4.25 fold.

B22: A3 L39S (designed binder)
chain: LPAPKNLVVSEVTEDSARLSWDDPWAFYESFLIQYQESEKVGEAIVLTVPGSERSYDLTGLKPGTEYTVSIYGVHNVYKDTNMRGLPLSAIFTTAPAPAPAPAPLPAPKNLVVSRVTEDSARLSWTAPDAAFDSFWIRYFEFSGSGEAIVLTVPGSERSYDLTGLKPGTEYVVNIMGVKGGKISPPLSAIFTT
B22: the Fold Change of KD against the parent in assay [1] amounted to 6.75 fold.

B23: A3 V68S (designed binder)
chain: LPAPKNLVVSEVTEDSARLSWDDPWAFYESFLIQYQESEKVGEAIVLTVPGSERSYDLTGLKPGTEYTVSIYGVHNVYKDTNMRGLPLSAIFTTAPAPAPAPAPLPAPKNLVVSRVTEDSARLSWTAPDAAFDSFWIRYFEFLGSGEAIVLTVPGSERSYDLTGLKPGTEYSVNIMGVKGGKISPPLSAIFTT
Consider B23, for which, in assay [1], the Fold Change of KD against the parent is 9 fold.

B24: A3 N70S (designed binder)
chain: LPAPKNLVVSEVTEDSARLSWDDPWAFYESFLIQYQESEKVGEAIVLTVPGSERSYDLTGLKPGTEYTVSIYGVHNVYKDTNMRGLPLSAIFTTAPAPAPAPAPLPAPKNLVVSRVTEDSARLSWTAPDAAFDSFWIRYFEFLGSGEAIVLTVPGSERSYDLTGLKPGTEYVVSIMGVKGGKISPPLSAIFTT
B24: the Fold Change of KD against the parent in assay [1] came to 14.8 fold.
